The results in this text go back to IntAct's records for PubMed 20577264.

Sequences and labels used below:
B1: G2 and S phase-expressed protein 1 (Homo sapiens), Q9NYZ3 (parent)
chain: MEGGGGRDEPSACRAGDVNMDDPKKEDILLLADEKFDFDLSLSSSSANEDDEVFFGPFGHKERCIAASLELNNPVPEQPPLPTSESPFAWSPLAGEKFVEVYKEAHLLALHIESSSRNQAAQAAKPEDPRSQGVERFIQESKLKINLFEKEKEMKKSPTSLKRETYYLSDSPLLGPPVGEPRLLASSPALPSSGAQARLTRAPGPPHSAHALPRESCTAHAASQAATQRKPGTKLLLPRAASVRGRSIPGAAEKPKKEIPASPSRTKIPAEKESHRDVLPDKPAPGAVNVPAAGSHLGQGKRAIPVPNKLGLKKTLLKAPGSTSNLARKSSSGPVWSGASSACTSPAVGKAKSSEFASIPANSSRPLSNISKSGRMGPAMLRPALPAGPVGASSWQAKRVDVSELAAEQLTAPPSASPTQPQTPEGGGQWLNSSCAWSESSQLNKTRSIRRRDSCLNSKTKVMPTPTNQFKIPKFSIGDSPDSSTPKLSRAQRPQSCTSVGRVTVHSTPVRRSSGPAPQSLLSAWRVSALPTPASRRCSGLPPMTPKTMPRAVGSPLCVPARRRSSEPRKNSAMRTEPTRESNRKTDSRLVDVSPDRGSPPSRVPQALNFSPEESDSTFSKSTATEVAREEAKPGGDAAPSEALLVDIKLEPLAVTPDAASQPLIDLPLIDFCDTPEAHVAVGSESRPLIDLMTNTPDMNKNVAKPSPVVGQLIDLSSPLIQLSPEADKENVDSPLLKF

The first assay covers variants of B1. To be noted: with plk1_human PLK1, P53350.
Chain of plk1_human PLK1, P53350 (P53350 whole entry): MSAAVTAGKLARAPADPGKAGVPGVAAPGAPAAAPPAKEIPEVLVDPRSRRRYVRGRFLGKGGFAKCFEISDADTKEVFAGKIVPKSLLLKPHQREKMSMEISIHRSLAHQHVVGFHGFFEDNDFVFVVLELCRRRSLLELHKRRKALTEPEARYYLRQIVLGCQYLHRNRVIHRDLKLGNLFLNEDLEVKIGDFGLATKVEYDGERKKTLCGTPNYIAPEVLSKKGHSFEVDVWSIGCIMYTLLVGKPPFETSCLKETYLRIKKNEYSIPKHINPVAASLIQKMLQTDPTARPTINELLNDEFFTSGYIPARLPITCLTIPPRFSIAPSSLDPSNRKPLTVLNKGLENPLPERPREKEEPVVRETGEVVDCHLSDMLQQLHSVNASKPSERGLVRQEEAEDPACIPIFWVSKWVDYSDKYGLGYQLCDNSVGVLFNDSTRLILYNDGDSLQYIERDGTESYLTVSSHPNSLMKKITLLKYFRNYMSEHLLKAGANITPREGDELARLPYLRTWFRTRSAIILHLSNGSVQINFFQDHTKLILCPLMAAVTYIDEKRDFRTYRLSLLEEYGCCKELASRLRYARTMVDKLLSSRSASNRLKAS
In the case of S454A, the “effect of a mutation on the interaction” value was “disrupting interaction”.

Variants of B1 are the subject of a further assay. To be noted: with plk1_human PLK1, P53350. This is another data set of the same source.
On to S242A, for which the “effect of a mutation on the interaction” value is recorded as “disrupting interaction”.
